Laboratory results as given in patent publication US20070178464A1.

Molecular target: Probe II: N-terminal domains of Rluc and DnaE with nuclear localization signal (expressed from pcRDn-NLS) (Renilla; blue-green algae, PCC6803 strain) (UniProt P27652)
Assay: cell-based or functional assay

Sequence of Probe II: N-terminal domains of Rluc and DnaE with nuclear localization signal (expressed from pcRDn-NLS) (Renilla; blue-green algae, PCC6803 strain) (P27652 whole entry, the tested form may be a part): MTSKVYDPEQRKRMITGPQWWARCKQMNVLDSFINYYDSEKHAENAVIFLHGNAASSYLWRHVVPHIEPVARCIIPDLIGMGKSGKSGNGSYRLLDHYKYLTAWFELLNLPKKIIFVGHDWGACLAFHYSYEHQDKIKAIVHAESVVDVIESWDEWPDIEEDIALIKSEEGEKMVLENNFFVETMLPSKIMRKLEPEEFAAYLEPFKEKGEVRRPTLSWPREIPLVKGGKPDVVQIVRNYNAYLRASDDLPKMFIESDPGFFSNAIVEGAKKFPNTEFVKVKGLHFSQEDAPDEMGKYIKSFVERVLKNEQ

luminescence intensity (cooled CCD image of mice implanted with transfected COS-7 cells): 20 times
Substance: Probe I: AR connected to the C-terminal domains of RLuc and DnaE (expressed from pcDRc-AR) (from UniProt P27652 230-311; P10275 1-918)
